Experimental data as given in the nanobody polyreactivity screen of Harvey et al. (2022).

Experiment: yeast display, Sf9 membrane polyspecificity reagent, FACS + sequencing; frameworks hold sequencing errors
Procedure, shortened: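 After 36–48 hours of galactose induction, yeast (Saccharomyces cerevisiae BJ5465) displaying a synthetic nanobody library were stained at 4 °C for 1 hour with 10% biotinylated, detergent-solubilized Sf9 membrane reagent. Streptavidin microbeads enriched the stained cells before FACS sorting into low and high (top ~1%) gates on anti-HA and streptavidin fluorescence. Each clone's polyreactivity label reflects its gate of origin.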

| Sequence | polyreactivity (PSR sort gate) |
| --- | --- |
| QVQLVESGGGLVQAGGSLRLSCAASGRIFRYNAMGWYRQAPGKERELVAAISWSGGSTYADSVKGRFTISRDNAKNTVYLQMNSLKPEDTAVYYCAADSSDLYVWGYDHWGQGTQVTVSS | low polyreactivity |
| QVQLVESGGGLVQAGGSLRLSCAASGRIFRYNAMGWYRQAPGKERELVAAISWTVGRTYYADSVKGRFTISRDNAKNTVYLQMNSLKPEDTAVYYCATDVGYYRKYEYYYWGQGTQVTVSS | high polyreactivity |
| QVQLVESGGGLVQAGGSLRLSCAASGRIFRYNAMGWYRQAPGKERELVAAITNSCSTNYADSVKGRFTISRDNAKNTVYLQMNSMKQEDTAVYYCAARARFYGGRSYDYWGQGTQVTVSS | high polyreactivity |
| QVQLVESGGGLVQAGGSLRLSCAASGRIFRYNAMGWYRQAPGKERELVAAITSGTGTNYADSVKGRFTISRDNAKNTVYLQMNSLKPEDTAVYYCNKDRKSYRYDYWGQGTQVTVSS | low polyreactivity |
| QVQLVESGGGLVQAGGSLRLSCAASGRIFRYNGMGWYRQAPGKERELVAVITPRSGTTSYADSVKGRFTISRDNAKNTVYLQMNSLKPEDTAVYYCAADSDWYPSPYDYWGQGTQVTVSS | high polyreactivity |
| QVQLVESGGGLVQAGGSLRLSCAASGRIFRYNIMGWYRPAPGKERELVAAIRQIGGSTYYADSVKGRFTISRDNAKNTVYLQMNSLKPEDTAVYYCAADSTVEATPFFVEYDYWGQGTQVTVSS | low polyreactivity |
| QVQLVESGGGLVQAGGSLRLSCAASGRIFRYYAIGWYRQAPGKERELVAVITSSGGSTYYADSVKGRFTISRDNAKNTVYLQMNSLKPEDTAVYYCAKDHRSYWGQGTQVTVSS | high polyreactivity |
| QVQLVESGGGLVQAGGSLRLSCAASGRIFRYYAKGWYRQAPGKERELVAAIRSASSTYYADSVKGRFTISRDNAKNTVYLQMNSLKPEDTAVYDCAAGLYGVYNRRYYYWGQGTQVTVSS | high polyreactivity |
| QVQLVESGGGLVQAGGSLRLSCAASGRIFRYYAMGWYRKAPGKERELVASISQRGGSTYYADSVKGRFTISRDNAKNTVYLQMNSLKPEDTAVYYCAARRSTVFILDYDWGQGTQVTVSS | high polyreactivity |
| QVQLVESGGGLVQAGGSLRLSCAASGRIFRYYAMGWYRPAPGKERELVAAITWRGDSTYYADSVKGRFTISRDNAKNTVYLQMNSLKPEDTAVYYCNKRWTDKYDSWGQGTQVTVSS | high polyreactivity |
| QVQLVESGGGLVQAGGSLRLSCAASGRIFRYYAMGWYRQAPGKEMELVAAITRGGSTNYADSVKGRFTISRDNAKNTGYLQMNSLKPEDTAVYYCATRQSWYPRWMDYWGQCTQVTVSS | high polyreactivity |
| QVQLVESGGGLVQAGGSLRLSCAASGRIFRYYAMGWYRQAPGKEREFVAAINSSGVNTYYADSVKGRFTISRDNAKNTVYLQMNSLKPEDTAVYYCAADWYQWGGRYYAPRYYYWGQGTQVTVSS | high polyreactivity |
| QVQLVESGGGLVQAGGSLRLSCAASGRIFRYYAMGWYRQAPGKERELVAAINWGGGSTYYADSVKGRFTISRDNAKNTVYLQMNSLKPEDTAVYYCNRDRNSFPHYFSHYGYWGQGTQVTVSS | high polyreactivity |
| QVQLVESGGGLVQAGGSLRLSCAASGRIFRYYAMGWYRQAPGKERELVAAISDSSGSTYYADSVKGRFTISRDNAKNSVYLQMNCLKPEDTAVYYCRYYFGSGYYYWGEGTQVTVSS | high polyreactivity |
| QVQLVESGGGLVQAGGSLRLSCAASGRIFRYYAMGWYRQAPGKERELVAAISKSGGSTYYADSVKGRFTISRDNAKNTVYFQMNSLKPEDTGVYYCNARSRLGGLYEYWGQGTQVTVSS | high polyreactivity |
| QVQLVESGGGLVQAGGSLRLSCAASGRIFRYYAMGWYRQAPGKERELVAAISWSGTSTYYADSVKGRFTISRDNAKNTVYLQMNSLKPEDTAVYYCAKVGYQYATYRSDYWGQGTQVTVSS | high polyreactivity |
| QVQLVESGGGLVQAGGSLRLSCAASGRIFRYYAMGWYRQAPGKERELVAAISYSGGRTYYADSVKGRFTISRDNAKNTVYLQMNSLKPEDTAVYYCARFWHSQSSYVPFDSWGQGTQVTVSS | high polyreactivity |
| QVQLVESGGGLVQAGGSLRLSCAASGRIFRYYAMGWYRQAPGKERELVAAISYSTGGTYYADSVKGRFTISRDNAKNTVYLQMNSLKPEDTAVYYCATSAYQIYPRYGYWGQGTQVTVSS | high polyreactivity |
| QVQLVESGGGLVQAGGSLRLSCAASGRIFRYYAMGWYRQAPGKERELVAAITQRGGSTYADSVKGRFTISRDNAKNTVYLQMNSLKPEDTAVYYCAYRGSFLYDYWGQGTQVTVSS | low polyreactivity |
| QVQLVESGGGLVQAGGSLRLSCAASGRIFRYYAMGWYRQAPGKERELVAAITWRGDSTYYADSVKGRFTISRDNAKNTVYLQMNSLKPEDTAVYYCNKRWTDKYDSWGQGTQVTVSS | high polyreactivity |
| QVQLVESGGGLVQAGGSLRLSCAASGRIFRYYAMGWYRQAPGKERELVAGITIGGSTNYADSVKGRFTISRDNAKNTVYLLMISLKPEDTAVYYCAAVQHDENEYWGQGTQVTVSS | low polyreactivity |
| QVQLVESGGGLVQAGGSLRLSCAASGRIFRYYAMGWYRQAPGKERELVATIRSGGSTNYADSVKGRFTISRDNAKNTVYLQMNSLKPEDTEVYYCAATGGILSTYDYWGLGTQVTVSS | high polyreactivity |

| Sequence | polyreactivity (PSR sort gate) |
| --- | --- |
| QVQLVESGGGLVQAGGSLRLSCAASGRIFRYYAMGWYRQAPGKERELVGSITYSGGRTNYADSVKGRFTISRDNAKNTVYLQMNSLKPEDTAVYYCNAAYVYYYPHYRYAPTAVDYDYWGQGTQVTVSS | low polyreactivity |
| QVQLVESGGGLVQAGGSLRLSCAASGRIFRYYAMVWYRQAPRKERELVAGITRGGTTNYADSVKGRFTISRDNAKNTVYLQMNSLKPEDTAVYYCAADTRRGIIGYDYWGQGTQVTVSS | high polyreactivity |
| QVQLVESGGGLVQAGGSLRLSCAASGRIFRYYVMGWYRQAPGKERELVAAISRSGGTTYYADSVKGRFTISRDTATNTVYLQMNSLKREDTAVFYCAAVYGRDPGDYWGQGTQVTVSS | high polyreactivity |
| QVQLVESGGGLVQAGGSLRLSCAASGRIFSAYAMGWYRQAPGKERELVAAISRSGGRTYYADSVKGRFTISRDNAKNTVYLQMNSLKPEDTAVYYCAAARFAIVRGDYWGQGTQVTVSS | high polyreactivity |
| QVQLVESGGGLVQAGGSLRLSCAASGRIFSAYAMGWYRQAPGKERELVAAISSGGRTYYADSVKGRFTISRDNAKNTVYLEMYRLKPEDTAVYFCNAVALWGRDYGYWGQGTQVSVSS | high polyreactivity |
| QVQLVESGGGLVQAGGSLRLSCAASGRIFSAYAMGWYRQAPGKERELVAVISSGDSTNYADSVKGRFTISRDNAKNTVYLQMNSLKPEDTAVYYCNARGKHRYGFRSHVGNEYWGQVTQVTVSS | low polyreactivity |
| QVQLVESGGGLVQAGGSLRLSCAASGRIFSDYAMGWYRQAPGKERELVAAISRSGTRTYYADSVKGRFTISRDNAKNTVYLQMNSLKPEDTAVYYCAAKTPYGRAGQEEDYWGQGTQVTVSS | high polyreactivity |
| QVQLVESGGGLVQAGGSLRLSCAASGRIFSEYALGWYRQAPGKERELVAAITRRGGSTYYADSVKGRFTISRYNAKNTVYLQMNSLKPEDTAVYYCNALLTGGYQDSYPADYWGQGTQVTVSS | high polyreactivity |
| QVQLVESGGGLVQAGGSLRLSCAASGRIFSFNAMGWYRQAPGKERELVAAISWSTGSTFYADSVKGRFTISRDNAKNTVYLQMNSLKPEDTAVYYCATGFPHPKRNVNRRNYWGQGTQVTVSS | high polyreactivity |
| QVQLVESGGGLVQAGGSLRLSCAASGRIFSFNAMGWYRQAPGKERELVAGITYGGNTYYADSVKGRFTISRDNAKNTVYLQMNSLKPEDTAVYYCAAVRGGRHDYWGQGTQVTVSS | low polyreactivity |
| QVQLVESGGGLVQAGGSLRLSCAASGRIFSFSAMGWYRQAPGKERELVAAISYSGGRTYYADSGKGRFTISRDNAKNTVYLQMNSLKPDDTAVYDCNAGRVLRLAYNYWGQGTQVTVSS | low polyreactivity |
| QVQLVESGGGLVQAGGSLRLSCAASGRIFSFYTMGWSRQAPGKERELVAAISNVGGTDYADSVKGRFTISRDNAKNTVYLQMNSLKPEDTAVYYCHAAWGRYFRYRWYTNGLDYWGQGTQVTVSS | low polyreactivity |
| QVQLVESGGGLVQAGGSLRLSCAASGRIFSGNAMGWYRQAPGKERELVANITSSSNTNYADSVKGRFTISRDNAKNTVYLQMNSLKPEDTAVYYCAKSAHNGYSFYGYDYWGQGTQVTVSS | low polyreactivity |
| QVQLVESGGGLVQAGGSLRLSCAASGRIFSGNGMGWYRQAPGKEREFVAAIRFSSGSTYYADSVKGRFTISRDNAKNTVYLQMNSLKPEDTAVYYCARPSIPRRYDYWGQGTQVTVSS | high polyreactivity |
| QVQLVESGGGLVQAGGSLRLSCAASGRIFSGYAMGWDRQAPGKERELVAAISSTGGTYYADSVKGRFTISRDNAKNTVYLQMNSLKPEDTAVYYCAADTYGYQGSAGGHWGQGTQVTVSS | low polyreactivity |
| QVQLVESGGGLVQAGGSLRLSCAASGRIFSGYAMGWYRQAPGKEMELVAAISNSGASTYYADSVKGRFTISRDNAKNTVYLQMNSLKPEDTAVYYCAASGRVYSSGYDYWGQGTQVTVSS | high polyreactivity |
| QVQLVESGGGLVQAGGSLRLSCAASGRIFSGYAMGWYRQAPGKERELVAAITSGASTNYADSVKGRFTISRDNAKNTVYLQMNSLKPEDTAVYYCNKKRTADYDYWGQGTQVTVSS | low polyreactivity |
| QVQLVESGGGLVQAGGSLRLSCAASGRIFSGYAMGWYRQAPGKESELVAAITSRSGSTYYADSVKARFTISRDNAKNTVYLQMNSLKPEDTAVYYCDAEYVRFYWYTSDYWGQGTQVTVSS | low polyreactivity |
| QVQLVESGGGLVQAGGSLRLSCAASGRIFSHYAMGWYRQAPGKERELVAAITWSGGRTYYADSVKGRFTISRDNAKNTVYLQMNSLKPEDTAVYYSAADREARYPVEYGYWGQGTQVTVSS | low polyreactivity |
| QVQLVESGGGLVQAGGSLRLSCAASGRIFSINVKGWYRHAPGKERELVAAISKRGGSTYYADSVKGRFTISRDNAKNTVYLQMNSLKPEDTAVYYCAARRHYTYGNGPSRGGQMDYWGQGTQVTVSS | high polyreactivity |
| QVQLVESGGGLVQAGGSLRLSCAASGRIFSIYGMGWYRQAPGKERELVAVISGSVGITYYADSVKGRFTISRDNAKNTVYLQMNSLKPEDTAVYYSNAKVRRRKYDYWGQGTQVTVSS | high polyreactivity |
